In article PMC1500806, “Carrageenan Is a Potent Inhibitor of Papillomavirus Infection” (PLoS Pathogens, 2006):

Tests used:
HPV16 PsV = assay type: cell-based, human papillomavirus; conditions: HeLa cells, nonpolysaccharide compounds, dash = no inhibition at noncytotoxic doses
Protocol: Various candidate HPV infection inhibitors were tested using a PsV-based inhibition assay. The assay uses flow cytometric analysis to assess the inhibition of PsV-mediated delivery of a green fluorescent protein (GFP) reporter plasmid into HeLa cells. HPV16, an exceptionally oncogenic genital HPV type, was chosen as a model HPV for initial experiments.
(§1) Compounds were tested using a previously described PsV-based papillomavirus inhibition assay. Briefly, HeLa cells were plated at 6,000 cells/well in 50 μl of medium in 96-well plates. Candidate inhibitors were dissolved at 1–10 mg/ml (or reconstituted as directed by manufacturer) in sterile water or appropriate solvent, then subjected to a ten-point three-fold serial dilution covering an appropriate concentration range. Diluted candidate inhibitor (50 μl) was added to preplated HeLa cells, followed by 50 μl of diluted PsV stock. The cells were incubated for 24 h, fed by addition of 100 μl of DMEM-10, then subjected to flow cytometric analysis 48–56 h after infection. IC50 values and 95% CI were determined using Prism (GraphPad Software, San Diego, California, United States) to calculate a variable slope sigmoidal dose-response curve.
PsV doses were calibrated such that between 5% and 20% of cells scored as GFP^+ when no inhibitors were added. […] HPV5 PsV infection of HeLa cells was performed with a dose of 35 ng/ml L1. […]

HeLa cells = test: Cytotoxicity (WST-1 turnover and/or cell morphology); assay type: cell-based; conditions: >50% reduction in WST-1 turnover and/or altered cell morphology
Protocol: as §1
Cytotoxicity was defined as a >50% reduction in the net turnover of the metabolic substrate WST-1 (Roche, Indianapolis, Indiana, United States) and/or by the appearance of dramatic alterations in the microscopic appearance of cell morphology at the time of harvest.

B1: Lactoferrin (protein, UniProt P24627 20-708, looked up)
Lactotransferrin: APRKNVRWCTISQPEWFKCRRWQWRMKKLGAPSITCVRRAFALECIRAIAEKKADAVTLDGGMVFEAGRDPYKLRPVAAEIYGTKESPQTHYYAVAVVKKGSNFQLDQLQGRKSCHTGLGRSAGWIIPMGILRPYLSWTESLEPLQGAVAKFFSASCVPCIDRQAYPNLCQLCKGEGENQCACSSREPYFGYSGAFKCLQDGAGDVAFVKETTVFENLPEKADRDQYELLCLNNSRAPVDAFKECHLAQVPSHAVVARSVDGKEDLIWKLLSKAQEKFGKNKSRSFQLFGSPPGQRDLLFKDSALGFLRIPSKVDSALYLGSRYLTTLKNLRETAEEVKARYTRVVWCAVGPEEQKKCQQWSQQSGQNVTCATASTTDDCIVLVLKGEADALNLDGGYIYTAGKCGLVPVLAENRKSSKHSSLDCVLRPTEGYLAVAVVKKANEGLTWNSLKDKKSCHTAVDRTAGWNIPMGLIVNQTGSCAFDEFFSQSCAPGADPKSRLCALCAGDDQGLDKCVPNSKEKYYGYTGAFRCLAEDVGDVAFVKNDTVWENTNGESTADWAKNLNREDFRLLCLDGTRKPVTEAQSCHLAVAPNHAVVSRSDRAAHVKQVLLHQQALFGKNGKNCPDKFCLFKSETKNLLFNDNTECLAKLGGRPTYEEYLGTEYVTAIANLKKCSTSPLLEACAFLTR
IC50 (HPV16 PsV): 13 µg/mL | Cytotoxicity (HeLa cells): >780 µg/mL
